Source: article PMC11966277

Substrate: O=C(O)C(=O)O
Test: purified protein
Conditions: pH 4.2 (optimum), 52 mM sodium acetate, 140 mM NaCl, 37 °C, potassium oxalate 0-150 mM, Mn enzyme

Protein | Km [mM] | kcat [s⁻¹] | kcat/Km [M⁻¹ s⁻¹]
Oxalate decarboxylase (OxDC) (Bacillus subtilis subsp. subtilis str. 168; H279D/T263E) (protein) MKKQNDIPQPIRGDKGATVKIPRNIERDRQNPDMLVPPETDHGTVSNMKFSFSDTHNRLEKGGYAREVTVRELPISENLASVNMRLKPGAIRELHWHKEAEWAYMIYGSARVTIVDEKGRSFIDDVGEGDLWYFPSGLPHSIQALEEGAEFLLVFDDGSFSENSTFQLTDWLAHTPKEVIAANFGVTKEEISNLPGKEKYIFENQLPGSLKDDIVEGPNGEVPYPFTYRLLEQEPIESEGGKVYIADSTNFKVSKTIASALVEVEPGAMRELHWHPNTDEWQYYISGKARMTVFASDGHARTFNYQAGDVGYVPFAMGHYVENIGDEPLVFLEIFKDDHYADVSLNQWLAMLPETFVQAHLDLGKDFTDVLSKEKHPVVKKKCSK | 5 ± 1 | 111 | 22000
Oxalate decarboxylase (OxDC) (Bacillus subtilis subsp. subtilis str. 168; I191F) (protein) MKKQNDIPQPIRGDKGATVKIPRNIERDRQNPDMLVPPETDHGTVSNMKFSFSDTHNRLEKGGYAREVTVRELPISENLASVNMRLKPGAIRELHWHKEAEWAYMIYGSARVTIVDEKGRSFIDDVGEGDLWYFPSGLPHSIQALEEGAEFLLVFDDGSFSENSTFQLTDWLAHTPKEVIAANFGVTKEEFSNLPGKEKYIFENQLPGSLKDDIVEGPNGEVPYPFTYRLLEQEPIESEGGKVYIADSTNFKVSKTIASALVTVEPGAMRELHWHPNTHEWQYYISGKARMTVFASDGHARTFNYQAGDVGYVPFAMGHYVENIGDEPLVFLEIFKDDHYADVSLNQWLAMLPETFVQAHLDLGKDFTDVLSKEKHPVVKKKCSK | 7 ± 2 | 101 | 14000
Oxalate decarboxylase (OxDC) (Bacillus subtilis subsp. subtilis str. 168; I191F/T263E) (protein) MKKQNDIPQPIRGDKGATVKIPRNIERDRQNPDMLVPPETDHGTVSNMKFSFSDTHNRLEKGGYAREVTVRELPISENLASVNMRLKPGAIRELHWHKEAEWAYMIYGSARVTIVDEKGRSFIDDVGEGDLWYFPSGLPHSIQALEEGAEFLLVFDDGSFSENSTFQLTDWLAHTPKEVIAANFGVTKEEFSNLPGKEKYIFENQLPGSLKDDIVEGPNGEVPYPFTYRLLEQEPIESEGGKVYIADSTNFKVSKTIASALVEVEPGAMRELHWHPNTHEWQYYISGKARMTVFASDGHARTFNYQAGDVGYVPFAMGHYVENIGDEPLVFLEIFKDDHYADVSLNQWLAMLPETFVQAHLDLGKDFTDVLSKEKHPVVKKKCSK | 5 ± 1 | 37 | 7000
Oxalate decarboxylase (OxDC) (Bacillus subtilis subsp. subtilis str. 168; H279D/I191F) (protein) MKKQNDIPQPIRGDKGATVKIPRNIERDRQNPDMLVPPETDHGTVSNMKFSFSDTHNRLEKGGYAREVTVRELPISENLASVNMRLKPGAIRELHWHKEAEWAYMIYGSARVTIVDEKGRSFIDDVGEGDLWYFPSGLPHSIQALEEGAEFLLVFDDGSFSENSTFQLTDWLAHTPKEVIAANFGVTKEEFSNLPGKEKYIFENQLPGSLKDDIVEGPNGEVPYPFTYRLLEQEPIESEGGKVYIADSTNFKVSKTIASALVTVEPGAMRELHWHPNTDEWQYYISGKARMTVFASDGHARTFNYQAGDVGYVPFAMGHYVENIGDEPLVFLEIFKDDHYADVSLNQWLAMLPETFVQAHLDLGKDFTDVLSKEKHPVVKKKCSK | 5 ± 2 | 110 | 22000
Oxalate decarboxylase (OxDC) (Bacillus subtilis subsp. subtilis str. 168) (protein) MKKQNDIPQPIRGDKGATVKIPRNIERDRQNPDMLVPPETDHGTVSNMKFSFSDTHNRLEKGGYAREVTVRELPISENLASVNMRLKPGAIRELHWHKEAEWAYMIYGSARVTIVDEKGRSFIDDVGEGDLWYFPSGLPHSIQALEEGAEFLLVFDDGSFSENSTFQLTDWLAHTPKEVIAANFGVTKEEISNLPGKEKYIFENQLPGSLKDDIVEGPNGEVPYPFTYRLLEQEPIESEGGKVYIADSTNFKVSKTIASALVTVEPGAMRELHWHPNTHEWQYYISGKARMTVFASDGHARTFNYQAGDVGYVPFAMGHYVENIGDEPLVFLEIFKDDHYADVSLNQWLAMLPETFVQAHLDLGKDFTDVLSKEKHPVVKKKCSK | 7 ± 2 | 103 | 15000
Oxalate decarboxylase (OxDC) (Bacillus subtilis subsp. subtilis str. 168; H279D) (protein) MKKQNDIPQPIRGDKGATVKIPRNIERDRQNPDMLVPPETDHGTVSNMKFSFSDTHNRLEKGGYAREVTVRELPISENLASVNMRLKPGAIRELHWHKEAEWAYMIYGSARVTIVDEKGRSFIDDVGEGDLWYFPSGLPHSIQALEEGAEFLLVFDDGSFSENSTFQLTDWLAHTPKEVIAANFGVTKEEISNLPGKEKYIFENQLPGSLKDDIVEGPNGEVPYPFTYRLLEQEPIESEGGKVYIADSTNFKVSKTIASALVTVEPGAMRELHWHPNTDEWQYYISGKARMTVFASDGHARTFNYQAGDVGYVPFAMGHYVENIGDEPLVFLEIFKDDHYADVSLNQWLAMLPETFVQAHLDLGKDFTDVLSKEKHPVVKKKCSK | 6 ± 2 | 58 | 10000
Oxalate decarboxylase (OxDC) (Bacillus subtilis subsp. subtilis str. 168; Y244R) (protein) MKKQNDIPQPIRGDKGATVKIPRNIERDRQNPDMLVPPETDHGTVSNMKFSFSDTHNRLEKGGYAREVTVRELPISENLASVNMRLKPGAIRELHWHKEAEWAYMIYGSARVTIVDEKGRSFIDDVGEGDLWYFPSGLPHSIQALEEGAEFLLVFDDGSFSENSTFQLTDWLAHTPKEVIAANFGVTKEEISNLPGKEKYIFENQLPGSLKDDIVEGPNGEVPYPFTYRLLEQEPIESEGGKVRIADSTNFKVSKTIASALVTVEPGAMRELHWHPNTHEWQYYISGKARMTVFASDGHARTFNYQAGDVGYVPFAMGHYVENIGDEPLVFLEIFKDDHYADVSLNQWLAMLPETFVQAHLDLGKDFTDVLSKEKHPVVKKKCSK | 5 ± 1 | 95 | 19000
